Data from patent US20080102459A1, “Method of Screening Antiobesity Agents” (ASTELLAS PHARMA INC., priority 2004, published 2008).

Tests used:
AGF gene = test: Amount of AGF gene expressed in C2C12 cells by quantitative PCR; format: cell-based, mouse; settings: 48 hours, compensated by cyclophilin, insulin at 100 nmol/L
Experimental: C2C12 cells (ATCC No.: CRL-1772) were added to a 24-well collagen-coated plate (ASAHI TECHNO GLASS) to become 20000 cells per well, and cultured with a Dulbecco's modified Eagle's medium (DMEM) supplemented with 15% fetal bovine serum, for one day. After insulin (Biomedical Technologies Inc) was added to the medium to a final concentration of 100 nmol/L, or after the medium was changed to the culture supernatant of 3T3-L1 prepared in Example 11, the C2C12 cells were cultured for 48 hours. As a control, the C2C12 cells were cultured with DMEM supplemented with 15% fetal bovine serum for 48 hours, without such treatments. After the cultivation, total RNAs were prepared from treated cells using an RNeasy Mini Kit (Qiagen) in accordance with a protocol attached thereto, and 500 ng thereof was converted to cDNAs using a Thermoscript RT-PCR system kit (Invitrogen).
Amounts of AGF gene expressed in C2C12 cells were measured by a quantitative PCR, using DNAs of SEQ ID NOS: 29 and 30 as primers for amplifying the mouse AGF, cDNAs (derived from culture supernatants of C2C12 cells) prepared in Example 12 as a template, and a sequence detector (ABI PRISM 7900; Applied Biosystems). […]

MAPK [1] = test: MAPK phosphorylation by AGF stimulation in HUVEC; format: cell-based, human; settings: HUVEC instead of C2C12
MAPK [2] = test: MAPK phosphorylation by AGF stimulation in ATDC5; format: cell-based; settings: ATDC5 instead of C2C12
MAPK p38 = test: MAPK phosphorylation by AGF stimulation, Western blotting, C2C12 cells differentiated into muscle; format: cell-based, mouse; settings: AGF protein 1 μg/mL, 10 minutes, versus PBS
Experimental: (§1) C2C12 cells were cultured with a growth medium (DMEM supplemented with 10% FCS) in a type I collagen coated 12-well plate to become confluent. After the medium was changed to a differentiation medium (DMEM supplemented with 2% horse serum), the C2C12 cells were cultured for 7 days to differentiate them into muscle. The cells were cultured in a serum-free medium containing 1% BSA, and the medium was changed to the same medium. The AGF protein (final concentration=1 μg/mL) or an equal volume of PBS was added. After 10 minutes, the medium was remove by suction, and the reaction was stopped by adding 50 μL of a solution for cell lysis [50 mmol/L HEPES (pH7.2), 1% Triton X-100, 10% glycerol, 10 mmol/L Na4P2O7, 100 mmol/L NaF, 100 μmol/L Na3VO4, 40 mmol/L EDTA, 50 μg/mL aprotinin, 1 mmol/L phenylmethyl sulfonyl fluoride (PMSF), 0.1 mmol/L leupeptin, and 25 μmol/L pepstatin A] to the cells. To each cell lysate sample obtained, an SDS-sample buffer [20% glycerol, 130 mmol/L Tris-HCl (pH6.8), 10% 2-mercaptoethanol, 6% SDS, and 0.2 mg/mL bromphenol blue] was added, and each sample was subjected to SDS-PAGE and blotted to a polyvinylidene fluoride (PVDF) membrane. Western blotting was carried out, using an anti-phosphorylated MAPK p38 antibody (Cell signaling #9211), an anti-phosphorylated MAPK p42/p44 antibody (Cell signaling #9101), an anti-MAPK p38 antibody (Cell signaling #9212), or an anti-MAPK p42/44 antibody (Cell signaling #9102) as the first antibody and an HRP-labeled anti-mouse IgG antibody (Example 9) as the second antibody, to detect a phosphorylation of MAPK p38, MAPK p42, and MAPK p44. The result of Western blotting was scanned using a scanner, and a concentration of each phosphorylated band was quantitated by an image analyzing software.

MAPK p42 = test: as above; format: cell-based, mouse; settings: AGF protein 1 μg/mL, 10 minutes, versus PBS
Experimental: as §1

MAPK p44 = test: as above; format: cell-based, mouse; settings: AGF protein 1 μg/mL, 10 minutes, versus PBS
Experimental: as §1

ATDC5 cells = test: Binding of AGF protein to cell line, flow cytometry; settings: protein 10 μg/mL, 4° C., 30 minutes; PI negative cells
Experimental: ATDC5 cells were cultured in a growth medium (DMEM/F12 with 5% FCS) to become subconfluent, and removed from a plate by a cell scraper. The cells were washed twice with an FCM buffer (0.1% BSA/1 mmol/L CaCl2/1 mmol/L MgCl2/PBS), and reacted with or without the mouse AGF protein or the human AGF protein at 4° C. for 30 minutes, at a final concentration of 10 μg/mL of the protein. The cells were washed with the FCM buffer, and reacted with fluorescein isothiocyanate (FITC)-labeled M2 antibody (Sigma) at 4° C. for 30 minutes, at a final concentration of 10 μg/mL. The cells were washed three times with the FCM buffer, and propidium iodide (PI) was added to the cells at a final concentration of 1 μg/mL, to stain death cells. The cells were analyzed using a flow cytometer (Cytomics FC 500; Beckman Coulter, Inc.), and an FITC intensity derived from PI negative cells other than death cells was measured.
Since the FLAG sequence was added to the human AGF protein and the mouse AGF protein, when the M2 antibody specific to the FLAG sequence was used, the FITC-labeled M2 antibody bound to the AGF protein which bound to cells, and thus, the fluorescence intensity of cells to which the AGF protein bound was increased. […]

insulin
induction of AGF expression in comparison with untreated control (AGF gene): approximately 6 times

B1: AGF protein: angiopoietin-related growth factor protein, species not stated in Example 16 (protein, UniProt Q8NI99 21-470, looked up)
Angiopoietin-related protein 6: RAGAPRCTYTFVLPPQKFTGAVCWSGPASTRATPEAANASELAALRMRVGRHEELLRELQRLAAADGAVAGEVRALRKESRGLSARLGQLRAQLQHEAGPGAGPGADLGAEPAAALALLGERVLNASAEAQRAAARFHQLDVKFRELAQLVTQQSSLIARLERLCPGGAGGQQQVLPPPPLVPVVPVRLVGSTSDTSRMLDPAPEPQRDQTQRQQEPMASPMPAGHPAVPTKPVGPWQDCAEARQAGHEQSGVYELRVGRHVVSVWCEQQLEGGGWTVIQRRQDGSVNFFTTWQHYKAGFGRPDGEYWLGLEPVYQLTSRGDHELLVLLEDWGGRGARAHYDGFSLEPESDHYRLRLGQYHGDAGDSLSWHNDKPFSTVDRDRDSYSGNCALYQRGGWWYHACAHSNLNGVWHHGGHYRSRYQDGVYWAEFRGGAYSLRKAAMLIRPLKL
phosphorylation of MAPK (MAPK [1]): promoted | phosphorylation of MAPK (MAPK [2]): promoted | increase of phosphorylation in phosphorylated MAPK p38 (MAPK p38): 1.6 times | increase of phosphorylation in phosphorylated MAPK p42 (MAPK p42): 3.4 times | increase of phosphorylation in phosphorylated MAPK p44 (MAPK p44): 4.3 times

B2: human AGF protein: FLAG-tagged recombinant human angiopoietin-related growth factor purified from HEK293 culture supernatant (protein)
chain: RAGAPRCTYTFVLPPQKFTGAVCWSGPASTRATPEAANASELAALRMRVGRHEELLRELQRLAAADGAVAGEVRALRKESRGLSARLGQLRAQLQHEAGPGAGPGADLGAEPAAALALLGERVLNASAEAQRAAARFHQLDVKFRELAQLVTQQSSLIARLERLCPGGAGGQQQVLPPPPLVPVVPVRLVGSTSDTSRMLDPAPEPQRDQTQRQQEPMASPMPAGHPAVPTKPVGPWQDCAEARQAGHEQSGVYELRVGRHVVSVWCEQQLEGGGWTVIQRRQDGSVNFFTTWQHYKAGFGRPDGEYWLGLEPVYQLTSRGDHELLVLLEDWGGRGARAHYDGFSLEPESDHYRLRLGQYHGDAGDSLSWHNDKPFSTVDRDRDSYSGNCALYQRGGWWYHACAHSNLNGVWHHGGHYRSRYQDGVYWAEFRGGAYSLRKAAMLIRPLKL
modifications: left off: small tags and cut ends
notes: FLAG-tagged recombinant human angiopoietin-related growth factor purified from HEK293 culture supernatant
increase of the fluorescence intensity (FITC-labeled M2 antibody) of cells (ATDC5 cells): 8.1 times

B3: mouse AGF protein: FLAG-tagged recombinant mouse angiopoietin-related growth factor purified from HEK293 culture supernatant (protein)
chain: ARCRVTLVLSPQKATSAVCRSSEATQDSELATLRMRLGRHEELLRALQRRAAEGGALADEVRALREHSLTLNTRLGQLRAQLQQEARAEPDLGAEPAAALGLLAERALDAEAEARRTTARLQQLDAQLREHAQLMSQHSSLLGRLQRACAGPERGQQQVLPLPLAPLVPLSLVGSASNTSRRLDQTPEHQREQSLRQQGPPSSLLPTGHLAVPTRPVGPWRDCAEAHGAGHWQSGVYDLRLGRRVVAVWCEQQQEGGGWTVIQRRQDGSVNFFTNWQHYKAGFGRPEGEYWLGLEPVHQVTSRGDHELLILLEDWGGRAARAHYDSFSLEPESDHYRLRLGQYHGDAGDSLSWHNDKPFSTVDRDRDSYSGNCALYHRGGWWYHACAHSNLNGVWYHGGHYRSRYQDGVYWAEFRGGAYSLKKAVMLTRLVRL
modifications: left off: small tags and cut ends
notes: FLAG-tagged recombinant mouse angiopoietin-related growth factor purified from HEK293 culture supernatant
increase of the fluorescence intensity (FITC-labeled M2 antibody) of cells (ATDC5 cells): 1.5 times
